From patent US20220143148A1, “COMPOSITIONS AND METHODS FOR MODULATING CGRP SIGNALING TO REGULATE INTESTINAL INNATE LYMPHOID CELLS” (The Broad Institute, Inc., priority 2019, published 2022)

Test system: small intestinal immune cells
Experiment: Droplet-based scRNA-seq of small intestinal immune cells (LP and PP), OVA vs PBS, clustering and differential expression
Type: in vivo, mouse
Details: cluster ID 12, LP; for LN (average fold change): OVA vs PBS
Description: To comprehensively characterize small intestinal immune cells, Applicants generated scRNA-Seq profiles for 58,067 immune cells collected from lamina propria (LP) and Peyer's patch (PP) regions at steady state and after induction of a type 2 inflammatory reaction to ovalbumin (OVA) (Brandt et al., 2003) (FIGS. 1A and 8A). To ensure sufficient representation of rare cells, Applicants combined a normalization strategy—removing by flow sorting either a portion of IgD+ naïve B cells, which are the most abundant cell type in PPs, or all CD19+ and CD3+ T cells (FIG. 8B, Methods)—with profiling of a sufficiently large number of cells number (P>0.99 to recover at least 15 cells from each cluster, Methods) by massively parallel scRNA-seq (Haber et al., 2017) (Methods). Applicants obtained 36,797 and 21,270 high quality cells passing initial filtering (Methods) from PP and LP regions, respectively.
Overall, Applicants annotated 27 cell subsets across the two compartments, spanning T cells, B cells, ILCs, dendritic cells (DCs), myeloid cells and stromal cells, in frequencies ranging from 0.07% to 14%. Briefly, Applicants first partitioned the cells from the PP regions by unsupervised clustering (Methods) into 46 clusters, retained the 97% of cells that were robustly assigned cell identities in each cluster (Methods), assigned the cells from the LP regions to the 46 clusters using a classifier (Methods), and visualized the data with scvis (Ding et al., 2018), a deep generative model-based method (FIGS. 1B and 8C, Methods). Next, Applicants identified genes that were differentially expressed between the cells in each cluster and the remaining cells (Table 1, Methods), as well as between pairs of clusters (Table 2), to elucidate identities of similar cell types/states. Applicants excluded from downstream analysis clusters mostly consisting of contaminants from epithelium, likely doublets, or cells with a small number of Unique Molecular Identifiers (UMIs) (FIGS. 1C and 8D), or lacking distinct markers (Methods). Altogether, Applicants retained 27 clusters spanning 85% of the cells and each associated with distinct marker genes (FIG. 8E, Methods).
To induce allergic reaction to OVA, 6 to 7 weeks old mice were sensitized twice, two weeks apart, with 50 μg of OVA plus 1 mg of aluminum potassium sulfate adjuvant via intraperitoneal injection. Two weeks later, mice were orally administered with 50 mg of OVA on every other day for a total of five times. 1 μg of α-CGRP peptide was administered simultaneously when indicated. Mice were deprived of food for 3-4 hours in cages with wood chip bedding for limiting antigen degradation in the stomach before each intragastric challenge.
Isolation of cells from Peyer's patches (PPs). Peyer's patches (PPs) were carefully dissected from the small intestine under a stereo microscope using a fine scissor, pierced once with a fine forcep. Tissues were digested in freshly made digestion buffer (RPMI-1640 containing 100 μg/ml Liberase™ and 50 μg/ml DNase I at 37° C. on a roto-mixer. After 15 min, tissues were very gently mixed using a 1 ml pipette. The supernatant was collected and added to ice-cold MACS buffer (pH 7.4; PBS plus 2% FCS and 2 mM EDTA). Pre-warmed (37° C.) fresh digestion buffer was added to the remaining tissues. After rotation at 37° C. for 15 min, the mixture was vigorously mixed using a 1 ml pipette for 1 min. Supernatants from the two steps were combined and passed through 70 μm filters and stained for FACS (below).
Isolation of cells from the lamina propria (LP). The small intestines were opened longitudinally and washed in ice-cold PBS. For scRNA-seq, roughly 0.5 cm of fragments from each of the distal, middle and proximal regions without visible PPs were collected. Epithelial cells were dissociated by tissue rotation in pre-warmed (37° C.) PBS containing 10 mM EDTA at 37° C. for 15 min, followed by additional incubation on ice for 15 min. Tissues were then shaken vigorously. […]

B1: OVA (protein, UniProt P01012 2-386, looked up)
Ovalbumin: GSIGAASMEFCFDVFKELKVHHANENIFYCPIAIMSALAMVYLGAKDSTRTQINKVVRFDKLPGFGDSIEAQCGTSVNVHSSLRDILNQITKPNDVYSFSLASRLYAEERYPILPEYLQCVKELYRGGLEPINFQTAADQARELINSWVESQTNGIIRNVLQPSSVDSQTAMVLVNAIVFKGLWEKAFKDEDTQAMPFRVTEQESKPVQMMYQIGLFRVASMASEKMKILELPFASGTMSMLVLLPDEVSGLEQLESIINFEKLTEWTSSNVMEERKIKVYLPRMKMEEKYNLTSVLMAMGITDVFSSSANLSGISSAESLKISQAVHAAHAEINEAGREVVGSAEAGVDAASVSEEFRADHPFLFCIKHIATNAVLFFGRCVSP
- percentage of expressing cells in OVA-treated group (gene Ero1l): 0.399
- LN (average fold change) (gene Ero1l): 0.949
- percentage of expressing cells in OVA-treated group (gene Fgl2): 0.61
- LN (average fold change) (gene Fgl2): 0.609
- percentage of expressing cells in OVA-treated group (gene Fth1): 0.963
- LN (average fold change) (gene Fth1): −0.236
- percentage of expressing cells in OVA-treated group (gene Fxyd5): 0.564
- LN (average fold change) (gene Fxyd5): 0.407
- percentage of expressing cells in OVA-treated group (gene Galnt12): 0.086
- LN (average fold change) (gene Galnt12): −0.960
- percentage of expressing cells in OVA-treated group (gene Gapdh): 0.561
- LN (average fold change) (gene Gapdh): 0.420
- percentage of expressing cells in OVA-treated group (gene Gimap5): 0.338
- LN (average fold change) (gene Gimap5): 0.779
- percentage of expressing cells in OVA-treated group (gene Glul): 0.184
- LN (average fold change) (gene Glul): −1.009
- percentage of expressing cells in OVA-treated group (gene Gmfg): 0.31
- LN (average fold change) (gene Gmfg): 0.821
- percentage of expressing cells in OVA-treated group (gene Gpr132): 0.399
- LN (average fold change) (gene Gpr132): −0.573
- percentage of expressing cells in OVA-treated group (gene Gpx4): 0.818
- LN (average fold change) (gene Gpx4): −0.345
- percentage of expressing cells in OVA-treated group (gene H2-Q4): 0.246
- LN (average fold change) (gene H2-Q4): −0.675
- percentage of expressing cells in OVA-treated group (gene H2afj): 0.433
- LN (average fold change) (gene H2afj): 0.452
- percentage of expressing cells in OVA-treated group (gene H3f3b): 0.982
- LN (average fold change) (gene H3f3b): 0.286
- percentage of expressing cells in OVA-treated group (gene Hccs): 0.243
- LN (average fold change) (gene Hccs): 1.079
- percentage of expressing cells in OVA-treated group (gene Hmgb1): 0.552
- LN (average fold change) (gene Hmgb1): −0.400
- percentage of expressing cells in OVA-treated group (gene Igha): 0.951
- LN (average fold change) (gene Igha): 0.407
- percentage of expressing cells in OVA-treated group (gene Igkc): 0.985
- LN (average fold change) (gene Igkc): 0.474
- percentage of expressing cells in OVA-treated group (gene Iglc1): 0.184
- LN (average fold change) (gene Iglc1): −0.692
- percentage of expressing cells in OVA-treated group (gene Irf1): 0.069
- LN (average fold change) (gene Irf1): −1.336
- percentage of expressing cells in OVA-treated group (gene Itk): 0.515
- LN (average fold change) (gene Itk): 0.495
- percentage of expressing cells in OVA-treated group (gene Jarid2): 0.156
- LN (average fold change) (gene Jarid2): 1.269
- percentage of expressing cells in OVA-treated group (gene Kdm6b): 0.65
- LN (average fold change) (gene Kdm6b): 0.555
- percentage of expressing cells in OVA-treated group (gene Kif23): 0.102
- LN (average fold change) (gene Kif23): −1.129
- percentage of expressing cells in OVA-treated group (gene Klf4): 0.336
- LN (average fold change) (gene Klf4): −0.566
- percentage of expressing cells in OVA-treated group (gene Lmna): 0.045
- LN (average fold change) (gene Lmna): −1.627
- percentage of expressing cells in OVA-treated group (gene Ly6a): 0.055
- LN (average fold change) (gene Ly6a): −1.208
- percentage of expressing cells in OVA-treated group (gene Maff): 0.399
- LN (average fold change) (gene Maff): −0.518
- percentage of expressing cells in OVA-treated group (gene Mat2a): 0.288
- LN (average fold change) (gene Mat2a): −0.572
- percentage of expressing cells in OVA-treated group (gene Naca): 0.839
- LN (average fold change) (gene Naca): 0.299
- percentage of expressing cells in OVA-treated group (gene Ndfip1): 0.247
- LN (average fold change) (gene Ndfip1): 0.765
- percentage of expressing cells in OVA-treated group (gene Neurl3): 0.328
- LN (average fold change) (gene Neurl3): −0.470
- percentage of expressing cells in OVA-treated group (gene Nfkb1): 0.81
- LN (average fold change) (gene Nfkb1): 0.501
- percentage of expressing cells in OVA-treated group (gene Nr4a2): 0.383
- LN (average fold change) (gene Nr4a2): 0.702
- percentage of expressing cells in OVA-treated group (gene Nrgn): 0.284
- LN (average fold change) (gene Nrgn): 1.042
- percentage of expressing cells in OVA-treated group (gene Nxpe3): 0.202
- LN (average fold change) (gene Nxpe3): 0.974
- percentage of expressing cells in OVA-treated group (gene Pfn1): 0.974
- LN (average fold change) (gene Pfn1): 0.233
- percentage of expressing cells in OVA-treated group (gene Pgm2l1): 0.065
- LN (average fold change) (gene Pgm2l1): −0.966
- percentage of expressing cells in OVA-treated group (gene Pnrc1): 0.583
- LN (average fold change) (gene Pnrc1): −0.457
- percentage of expressing cells in OVA-treated group (gene Pole4): 0.604
- LN (average fold change) (gene Pole4): 0.415
- percentage of expressing cells in OVA-treated group (gene Polr2e): 0.091
- LN (average fold change) (gene Polr2e): −1.019
- percentage of expressing cells in OVA-treated group (gene Prdx6): 0.507
- LN (average fold change) (gene Prdx6): 0.908
- percentage of expressing cells in OVA-treated group (gene Psap): 0.299
- LN (average fold change) (gene Psap): −0.562
- percentage of expressing cells in OVA-treated group (gene Psmb8): 0.49
- LN (average fold change) (gene Psmb8): −0.441
- percentage of expressing cells in OVA-treated group (gene Psmb10): 0.219
- LN (average fold change) (gene Psmb10): −0.598
- percentage of expressing cells in OVA-treated group (gene Ptp4a1): 0.349
- LN (average fold change) (gene Ptp4a1): −0.514
- percentage of expressing cells in OVA-treated group (gene Ramp3): 0.561
- LN (average fold change) (gene Ramp3): 0.516
- percentage of expressing cells in OVA-treated group (gene Rheb): 0.536
- LN (average fold change) (gene Rheb): 0.631
- percentage of expressing cells in OVA-treated group (gene Rnf19b): 0.279
- LN (average fold change) (gene Rnf19b): 0.971
- percentage of expressing cells in OVA-treated group (gene Rsrp1): 0.24
- LN (average fold change) (gene Rsrp1): −0.708
- percentage of expressing cells in OVA-treated group (gene Saraf): 0.304
- LN (average fold change) (gene Saraf): −0.533
- percentage of expressing cells in OVA-treated group (gene Scp2): 0.382
- LN (average fold change) (gene Scp2): −0.568
- percentage of expressing cells in OVA-treated group (gene Sepp1): 0.254
- LN (average fold change) (gene Sepp1): −0.824
- percentage of expressing cells in OVA-treated group (gene Serp1): 0.554
- LN (average fold change) (gene Serp1): −0.529
- percentage of expressing cells in OVA-treated group (gene Srsf7): 0.251
- LN (average fold change) (gene Srsf7): −0.443
- percentage of expressing cells in OVA-treated group (gene Tgfb1): 0.457
- LN (average fold change) (gene Tgfb1): 0.625
- percentage of expressing cells in OVA-treated group (gene Tgoln1): 0.215
- LN (average fold change) (gene Tgoln1): −0.572
- percentage of expressing cells in OVA-treated group (gene Tiparp): 0.18
- LN (average fold change) (gene Tiparp): −0.904
- percentage of expressing cells in OVA-treated group (gene Tmem64): 0.41
- LN (average fold change) (gene Tmem64): 0.605
- percentage of expressing cells in OVA-treated group (gene Tmsb4x): 1
- LN (average fold change) (gene Tmsb4x): 0.195
- percentage of expressing cells in OVA-treated group (gene Tmsb10): 0.942
- LN (average fold change) (gene Tmsb10): −0.240
- percentage of expressing cells in OVA-treated group (gene Tnfaip3): 0.534
- LN (average fold change) (gene Tnfaip3): −0.487
- percentage of expressing cells in OVA-treated group (gene Tnfaip8): 0.518
- LN (average fold change) (gene Tnfaip8): 0.740
- percentage of expressing cells in OVA-treated group (gene Tpm4): 0.394
- LN (average fold change) (gene Tpm4): 0.964
- percentage of expressing cells in OVA-treated group (gene Tspan13): 0.699
- LN (average fold change) (gene Tspan13): −0.366
- percentage of expressing cells in OVA-treated group (gene Tspan32): 0.073
- LN (average fold change) (gene Tspan32): −0.997
- percentage of expressing cells in OVA-treated group (gene Ubc): 0.303
- LN (average fold change) (gene Ubc): −0.542
- percentage of expressing cells in OVA-treated group (gene Ucp2): 0.612
- LN (average fold change) (gene Ucp2): 0.519
- percentage of expressing cells in OVA-treated group (gene Uhrf2): 0.296
- LN (average fold change) (gene Uhrf2): −0.506
- percentage of expressing cells in OVA-treated group (gene Uqcrh): 0.765
- LN (average fold change) (gene Uqcrh): 0.450
- percentage of expressing cells in OVA-treated group (gene Usmg5): 0.509
- LN (average fold change) (gene Usmg5): −0.414
- percentage of expressing cells in OVA-treated group (gene Vmp1): 0.239
- LN (average fold change) (gene Vmp1): 1.019
- percentage of expressing cells in OVA-treated group (gene Zc3h12a): 0.157
- LN (average fold change) (gene Zc3h12a): −0.866
- percentage of expressing cells in OVA-treated group (gene Zfp36l2): 0.49
- LN (average fold change) (gene Zfp36l2): 0.453
- percentage of expressing cells in OVA-treated group (gene Zrsr1): 0.242
- LN (average fold change) (gene Zrsr1): −0.652
